According to patent US20110217338A1:

How the values were obtained:
[1] = target: IgG b12, broadly neutralizing anti-HIV-1 gp120 antibody; assay: SPR, Biacore 2000, 25 C, IgG b12 immobilized on CM5 chip (900 RU)
[2] = target: b122a displayed on the surface of yeast EBY100; assay: flow cytometry of yeast EBY100 displaying b122a, b12 detected with anti-human-PE

Substance	Kd [1] [nM]	concentration of b12 which showed appreciable binding [2] [µM]
Core gp120	22	–
IgG b12, broadly neutralizing anti-HIV-1 gp120 antibody	–	9
Wt gp120 (full-length HIV-1 gp120)	17	–
